In data set [1] the target is urease apoprotein (UreABC)3 (Klebsiella aerogenes, UniProt P18316 1-100; P18315 1-106; P18314 1-567). Nature of the data set: native MS.
Data set [2] deals with the molecule itself. The data set can be described thus: cross-linking.

Sequence of urease apoprotein (UreABC)3 (P18316 whole entry, chain 1 of 3): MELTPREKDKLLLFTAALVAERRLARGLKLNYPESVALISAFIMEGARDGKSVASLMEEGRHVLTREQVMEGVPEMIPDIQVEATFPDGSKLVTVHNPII
Sequence of urease apoprotein (UreABC)3 (P18315 whole entry, chain 2 of 3): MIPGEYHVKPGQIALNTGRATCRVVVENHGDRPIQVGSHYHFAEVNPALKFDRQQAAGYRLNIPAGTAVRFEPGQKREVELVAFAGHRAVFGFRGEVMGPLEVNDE
Sequence of urease apoprotein (UreABC)3 (P18314 whole entry, chain 3 of 3): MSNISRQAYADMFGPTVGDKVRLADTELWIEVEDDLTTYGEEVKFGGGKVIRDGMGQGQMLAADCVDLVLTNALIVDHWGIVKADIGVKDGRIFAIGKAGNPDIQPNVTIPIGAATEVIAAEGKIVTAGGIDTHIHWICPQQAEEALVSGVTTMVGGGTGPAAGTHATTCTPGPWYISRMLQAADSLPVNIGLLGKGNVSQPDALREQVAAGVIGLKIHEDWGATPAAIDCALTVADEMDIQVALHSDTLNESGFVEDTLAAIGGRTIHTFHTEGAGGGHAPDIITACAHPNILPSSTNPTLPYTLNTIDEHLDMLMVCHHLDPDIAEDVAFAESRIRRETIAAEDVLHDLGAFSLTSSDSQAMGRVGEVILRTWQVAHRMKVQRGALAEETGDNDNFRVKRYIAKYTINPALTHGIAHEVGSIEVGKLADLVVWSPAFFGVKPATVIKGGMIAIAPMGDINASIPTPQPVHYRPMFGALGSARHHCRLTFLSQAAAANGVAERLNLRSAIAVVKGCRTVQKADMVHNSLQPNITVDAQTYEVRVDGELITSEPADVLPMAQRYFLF

B1: maltose binding protein fusion of UreD (MBP-UreD) (natural protein, Klebsiella aerogenes, UniProt Q09063 1-270, looked up)
chain: MLPPLKKGWQATLDLRFHQAGGKTVLASAQHVGPLTVQRPFYPEEETCHLYLLHPPGGIVGGDELTISAHLAPGCHTLITMPGASKFYRSSGAQALVRQQLTLAPQATLEWLPQDAIFFPGANARLFTTFHLCASSRLLAWDLLCLGRPVIGETFSHGTLSNRLEVWVDNEPLLVERLHLQEGELSSIAERPWVGTLLCYPATDALLDGVRDALAPLGLYAGASLTDRLLTVRFLSDDNLICQRVMRDVWQFLRPHLTGKSPVLPRIWLT
Consider B1, for which the binding result in data set [1] is on record as “binds”.

B2: MBP-UreD:UreF (complex, Klebsiella aerogenes)
chain 1: MLPPLKKGWQATLDLRFHQAGGKTVLASAQHVGPLTVQRPFYPEEETCHLYLLHPPGGIVGGDELTISAHLAPGCHTLITMPGASKFYRSSGAQALVRQQLTLAPQATLEWLPQDAIFFPGANARLFTTFHLCASSRLLAWDLLCLGRPVIGETFSHGTLSNRLEVWVDNEPLLVERLHLQEGELSSIAERPWVGTLLCYPATDALLDGVRDALAPLGLYAGASLTDRLLTVRFLSDDNLICQRVMRDVWQFLRPHLTGKSPVLPRIWLT
chain 2: MSTAEQRLRLMQLASSNLPVGGYSWSQGLEWAVEAGWVLDVAAFERWQRRQMTEGFFTVDLPLFARLYRACEQGDIAAAQRWTAYLLACRETRELREEERNRGAAFARLLSDWQPDCPPPWRSLCQQSQLAGMAWLGVRWRIALPEMALSLGYSWIESAVMAGVKLVPFGQQAAQQLILRLCDHYAAEMPRALAAPDGDIGSATPLAAIASARHETQYSRLFRS
Consider B2, for which the binding result in data set [1] is “binds”.

B3: K165A variant of UreF (natural protein)
chain: MSTAEQRLRLMQLASSNLPVGGYSWSQGLEWAVEAGWVLDVAAFERWQRRQMTEGFFTVDLPLFARLYRACEQGDIAAAQRWTAYLLACRETRELREEERNRGAAFARLLSDWQPDCPPPWRSLCQQSQLAGMAWLGVRWRIALPEMALSLGYSWIESAVMAGVALVPFGQQAAQQLILRLCDHYAAEMPRALAAPDGDIGSATPLAAIASARHETQYSRLFRS
Regarding B3, in data set [2], the binding result was “binds”.

The values are drawn from article PMC3788043 (Journal of the American Society for Mass Spectrometry, 2013).
